System: MS2 coat protein
Test: apparent KD of MS2 coat protein; designed switch direction (-1 OFF switch, 1 ON switch): -1; higher = weaker reporter binding
Summary of the method: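 Designed RNA switches sharing common flanks were transcribed on Illumina chips by stalled E. coli RNA polymerase. They were titrated with SNAP-549-labelled MS2 coat protein, from 0.7 or 1.5 nM doubling to 3 µM, in Tris-HCl pH 7.5 buffer with KCl, MgCl2, BSA, DTT, tRNA and Tween-20. Titrations ran without input, with 200 uM small-molecule ligand, or with an oligonucleotide input. The apparent KD of each design is the median over its clusters, after curve-fitting of normalised cluster fluorescence.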

[1] = input ligand: microRNA oligo, concentration not stated
[2] = Eterna round: R95, input ligand: FMN 200 uM
[3] = Eterna round: R95, input ligand: microRNA oligo, concentration not stated
[4] = Eterna round: R95, input ligand: none

Sequence	apparent KD of MS2 coat protein [1]	apparent KD of MS2 coat protein (input ligand: FMN 200 uM)	apparent KD of MS2 coat protein (input ligand: none)	apparent KD of MS2 coat protein [2]	apparent KD of MS2 coat protein [3]	apparent KD of MS2 coat protein [4]
UAAUAAUAGCAAGGAUAUGGUUAUUAUAAUAUACCAGAAGGUGCACAUGAGGAUCACCCAUGUUUUAUAAUUUGUAAUUUAAAU [First something] (Eterna round: R96, puzzle: Exclusion NG 1)	22.9 nM					
UUUGUACAUGAGGAUCACCCAUGUCAGGAUAUGUCAUCGCCGUUUCCCAGCCGGCGUCACAGAAGGGACAUGCA [EX1 C.5] (Eterna round: R97, puzzle: Exclusion 1)		56.6 nM	26.2 nM			
CGAUGUCUUCGGACAUCGAACAUGAGGAUCACCCAUGUAAUGAGCAGAUCCUCAUGCAAGCUUUUUGCUCGUCUUAU [Sensor v3 - turn-off variant 1 - 45] (puzzle: Sensor v3, turn-off variant 1)				14 nM	9.69 nM	16.6 nM
AGAUGGCGAGGAUAUACAUGAGGAUCACCCAUGUGAAUAAUAAUAGUGAGGAAGAAAAGUAGAAGGCGCUGUCA [Mat - Exclusion 3 - Mod of Salish D34] (puzzle: Exclusion 3)				357 nM	42.1 nM	41.2 nM
UGAGAGUGAGGAUAUACGUCGCUGGUCCGGAUGGACGCAUGACAUGAGGAUCACCCAUGUAGAAGGCAUUUCCC [Enxela Mod 6 - Jieux - Exclusion 2] (Eterna round: R97, puzzle: Exclusion 2)		75.2 nM	26.9 nM			
UAUGAAGUAGGAUAUACAUGAGGAUCACCCAUGUCCUUACUGAGACCGGGCACGGCUCGUAGAAGGGCUUUCGA [Eternabot (L2) Solution 50] (Eterna round: R97, puzzle: Exclusion 3)		36.7 nM	40.7 nM			
AUAAUGUGAGGAUAUCGAGACUACUGCUUCGGCAGUAGUCUCGAGAAGGCACAUGAGGAUCACCCAUGUGAUCA [E4/2-A1] (Eterna round: R97, puzzle: Exclusion 4)		56.6 nM	685 nM			
AGAAGUAGUAACCGAUCCUACAUGAGGAUCACCCAUGUAGCUAGACGUGCACGCGACGCUCGUCAGACUACCAGAUG [salish99_TOv1_r3_029] (puzzle: Sensor v3, turn-off variant 1)				270 nM	324 nM	418 nM
GAGAACGUAGGAUAUACAUGAGGAUCACCCAUGUGAGGAAGGAGUAGGAAGAGUGGAAGUAGAAGGACGGAGAG [JR_Exclu3_Sub072] (puzzle: Exclusion 3)				47.4 nM	21.9 nM	34.9 nM
CGCAUGUCAGGAUAUCGUGCAUACAACGAAAGUUCUAUGUGCGAGAAGGGACAUGAGGAUCACCCAUGUUAGCG [Omei Ex4 A9] (Eterna round: R97, puzzle: Exclusion 4)		741 nM	604 nM			
AGCCACAGAGGAUAUACAUACAUCCAGUAGCGGAUAUCGCUACAUGAGGAUCACCCAUGUAGAAGGCUGUGGCA [Omei Ex2 BD B22] (Eterna round: R97, puzzle: Exclusion 2)		148 nM	611 nM			
AAAGGACGAUUAGGAUAUUCGGUUCAAGGUAAAGAAGAAGGAAUCGUUCCAUACUUAACAUGAGGAUCACCCAUGUGGGUCUAG [Eternabot solution 38] (Eterna round: R96, puzzle: Exclusion NG 1)	25.5 nM					
ACAUGUCAUCGAGGAUAUUGUACACAUGAGGAUCACCCAUGUAUUCGGUUGCUCUAGCAUGAGUUCGAGAAGGCGAUGUACAUU [Ex NG2 #83] (Eterna round: R96, puzzle: Exclusion NG 2)	134 nM	153 nM	194 nM			
GAAAACGCAGAGGAUAUUUCAGAUCAAAGCUGCAAAGAAGGCUGCACAUGAGGAUCACCCAUGUGGUCUCAAAA [Mod of Quesina 3 - Jieux - Exclusion 6] (Eterna round: R97, puzzle: Exclusion 6)		422 nM	33.6 nM			

Reference: the supplement of paper PMC9170038
